# In patent publication US20150064204A1 (Amgen, published 2015):
# Where a chain is given by its changes, count along the chain named.
# T1: human GITR (human, UniProt Q9Y5U5 26-241)
# T1 construct: also called TNFRSF18; Glucocorticoid-induced TNFR-related gene
# T1 sequence: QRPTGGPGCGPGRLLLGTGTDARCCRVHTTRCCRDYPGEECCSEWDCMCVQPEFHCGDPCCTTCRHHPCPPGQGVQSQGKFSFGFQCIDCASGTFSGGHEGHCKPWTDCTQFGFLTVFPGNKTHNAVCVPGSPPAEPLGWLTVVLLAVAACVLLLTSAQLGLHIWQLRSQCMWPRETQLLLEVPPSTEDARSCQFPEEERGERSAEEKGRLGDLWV
# B1: 7A10 (antibody, human IgG1, kappa, V domains shown)
# VH: QVQLVESGGGVVQPGRSLRLSCAASGFTFSSYGMHWVRQAPGKGLEWMAVIWYVGSNKYYADSVKGRFTISRDNSKNTLYLQMNSLSAEDTAVYYCARGGELGRDYYSGMDVWGQGTTVTVSS
# VL: DIQMTQSPSSLSASVGDRVTITCRASQGIRNDLGWYQQKPGKAPKRLIYAASSLQSGVPSRFSGSGSGTEFTLTISSLQPEDFATYYCQQHNSYPWTFGQGTKVEIKR
# notes: Parental fully human antibody; also called Ab18; SS-10944
# B2: 33C9v4 (antibody, human IgG1, kappa, V domains shown)
# VH: B1 VH with L4V, M48V, A49S, V54E, D62E, S87R, E101L, R104Y, D105Y, S108Y
# VL: B1 VL with R46L, A50D, Q89L, N92H
# notes: Engineered variant; also called Ab53; SS-16950
# B3: 33C9v1 (antibody, human IgG1, kappa, V domains shown)
# VH: B1 VH with L4V, M48V, A49S, V54E, S87R, E101L, R104Y, D105Y, S108Y
# VL: B1 VL with R46L, A50D, Q89L, N92H
# notes: Engineered variant; also called Ab50; SS-16948
# B4: 33C9v3 (antibody, human IgG1, kappa, V domains shown)
# VH: B1 VH with L4V, M48V, A49S, V54E, S63T, S87R, E101L, R104Y, D105Y, S108Y
# VL: B1 VL with A50D, Q89L, N92H
# notes: Engineered variant; also called Ab52; SS-16949
# B5: 33C9v5 (antibody, human IgG1, kappa, V domains shown)
# VH: B1 VH with L4V, M48V, A49S, V54E, S63T, S87R, E101L, R104Y, D105Y, S108Y
# VL: B1 VL with R46L, A50D, Q89L, N92H
# notes: Engineered variant; also called Ab54; SS-16951
# B6: 7A10v3 (antibody, human IgG1, kappa, V domains shown)
# VH: B1 VH with D62E, S87R
# VL: B1 VL
# notes: Engineered variant; also called Ab41; SS-16939
# B7: 41G5v1 (antibody, human IgG1, kappa, V domains shown)
# VH: B1 VH with M48V, V54P, S87R, D105Y, S108Y
# VL: B1 VL with I21V, R46L, Q89L, S93N, E105D
# notes: Engineered variant; also called Ab55; SS-16952
# B8: 7A10v4 (antibody, human IgG1, kappa, V domains shown)
# VH: B1 VH with S63T, S87R
# VL: B1 VL
# notes: Engineered variant; also called Ab42; SS-16940
# B9: 7A10v5 (antibody, human IgG1, kappa, V domains shown)
# VH: B1 VH with D62E, S87R
# VL: B1 VL with R46L
# notes: Engineered variant; also called Ab43; SS-16941
# B10: 7A10v2 (antibody, human IgG1, kappa, V domains shown)
# VH: B1 VH with S87R
# VL: B1 VL with R46L
# notes: Engineered variant; also called Ab40; SS-16938
# B11: 9H6v4 (antibody, human IgG1, kappa, V domains shown)
# VH: B1 VH with A23V, V37I, M48V, V54E, S63T, S87R, E101R, R104K
# VL: B1 VL with A51T, Q89L, S93T
# notes: Engineered variant; also called Ab47; SS-16945
# B12: 9H6v5 (antibody, human IgG1, kappa, V domains shown)
# VH: B1 VH with A23V, V37I, M48V, V54E, D62E, S87R, E101R, R104K
# VL: B1 VL with R46L, A51T, Q89L, S93T
# notes: Engineered variant; also called Ab48; SS-16946
# B13: 41G5 (antibody, human IgG1, kappa, V domains shown)
# VH: B1 VH with M48V, V54P, S87R, D105Y, S108Y
# VL: B1 VL with I21V, Q89L, S93N, E105D
# notes: Parental fully human antibody; also called Ab7; SS-12428
# B14: 41G5v5 (antibody, human IgG1, kappa, V domains shown)
# VH: B1 VH with M48V, V54P, S63T, S87R, D105Y, S108Y
# VL: B1 VL with I21V, R46L, Q89L, S93N, E105D
# notes: Engineered variant; also called Ab59; SS-16955
# B15: 9H6v6 (antibody, human IgG1, kappa, V domains shown)
# VH: B1 VH with A23V, V37I, M48V, V54E, S63T, S87R, E101R, R104K
# VL: B1 VL with R46L, A51T, Q89L, S93T
# notes: Engineered variant; also called Ab49; SS-16947
# B16: 33C9 (antibody, human IgG1, kappa, V domains shown)
# VH: B1 VH with L4V, M48V, A49S, V54E, S87R, E101L, R104Y, D105Y, S108Y
# VL: B1 VL with A50D, Q89L, N92H
# notes: Parental fully human antibody; also called Ab2; SS-12413
# B17: 9H6 (antibody, human IgG1, kappa, V domains shown)
# VH: B1 VH with A23V, V37I, M48V, V54E, S87R, E101R, R104K
# VL: B1 VL with K45N, A51T, Q89L, S93T
# notes: Parental fully human antibody; also called Ab19; SS-10945
# B18: 41G5v3 (antibody, human IgG1, kappa, V domains shown)
# VH: B1 VH with M48V, V54P, S63T, S87R, D105Y, S108Y
# VL: B1 VL with I21V, Q89L, S93N, E105D
# notes: Engineered variant; also called Ab57; SS-16953
# B19: 9H6v1 (antibody, human IgG1, kappa, V domains shown)
# VH: B1 VH with A23V, V37I, M48V, V54E, S87R, E101R, R104K
# VL: B1 VL with A51T, Q89L, S93T
# notes: Engineered variant; also called Ab44; SS-16943
# B20: 41G5v4 (antibody, human IgG1, kappa, V domains shown)
# VH: B1 VH with M48V, V54P, D62E, S87R, D105Y, S108Y
# VL: B1 VL with I21V, R46L, Q89L, S93N, E105D
# notes: Engineered variant; also called Ab58; SS-16954
# B21: 9H6v2 (antibody, human IgG1, kappa, V domains shown)
# VH: B1 VH with A23V, V37I, M48V, V54E, S87R, E101R, R104K
# VL: B1 VL with R46L, A51T, Q89L, S93T
# notes: Engineered variant; also called Ab45; SS-16944
# B22: 5H7 (antibody, human IgG1, kappa, V domains shown)
# VH: QVQLQESGPGLVKPSQTLSLTCTVSGGSISSGGYFWSWIRQHPGKGLEWIGYIYYSGTTYYNPSLKSRVTISIDTSKNHFSLKLSSVTAADTAVYYCARDLFYYDSSGPRGFDPWGQGTLVTVSS
# VL: EIVLTQSPGTLSLSPGERATLSCRASQTVSSNYLAWYQQKPGQAPRLLIYGSSTRATGIPDRFSGSGSGTDFTLTISRLEPEDFAVYYCQQYDSSPWTFGQGTKVEIKR
# notes: Parental fully human antibody; also called Ab17; SS-10943
# B23: 5H7v3 (antibody, human IgG1, kappa, V domains shown)
# VH: B22 VH with Q16E, H42P, H79Q, D113E
# VL: B22 VL
# notes: Engineered variant; also called Ab27; SS-16913
# B24: 5H7v1 (antibody, human IgG1, kappa, V domains shown)
# VH: B22 VH with Q16E, H42P, H79Q, D105E
# VL: B22 VL
# B25: 5H7v10 (antibody, human IgG1, kappa, V domains shown)
# VH: B22 VH with Q16E, H42P, H79Q
# VL: B22 VL with D93E
# B26: 5H7v11 (antibody, human IgG1, kappa, V domains shown)
# VH: B22 VH with Q16E, H42P, H79Q
# VL: B22 VL with S94T
# B27: 5H7v13 (antibody, human IgG1, kappa, V domains shown)
# VH: B22 VH with Q16E, H42P, H79Q, S106T
# VL: B22 VL with D93E
# B28: 5H7v17 (antibody, human IgG1, kappa, V domains shown)
# VH: B22 VH with Q16E, H42P, H79Q, S106T
# VL: B22 VL with S94T
# B29: 5H7v5 (antibody, human IgG1, kappa, V domains shown)
# VH: B22 VH with Q16E, H42P, H79Q, D105E, D113E
# VL: B22 VL
# Biological target: T1, human GITR
# Assay: flow cytometry on activated human T cells
row,Binder,EC50 [µg/mL]
1,B1,0.067
2,B2,0.082
3,B3,0.078
4,B4,0.056
5,B5,0.068
6,B6,0.003
7,B7,0.06
8,B8,0.002
9,B9,0.783
10,B10,0.861
11,B11,0.095
12,B12,0.38
13,B13,0.055
14,B14,0.064
15,B15,0.411
16,B16,0.06
17,B17,0.134
18,B18,0.06
19,B19,0.144
20,B20,0.068
21,B21,0.423
22,B22,0.303
23,B23,0.293

# Biological target: T1, human GITR
# Assay: cell-based or functional assay
Binder,Proliferation (Fold over CD3) [fold over CD3],Proliferation EC50 [µg/mL]
B1,3.4,0.012
B2,2.6,0.017
B3,2.1,0.018
B4,3.1,0.025
B5,2.5,0.018
B6,55,0.046
B7,2.9,0.017
B8,60,0.006
B9,0.6,0.02
B10,0.7,0.043
B11,3.3,0.007
B12,1.9,0.011
B13,3.7,0.004
B14,2.5,0.012
B15,1.5,0.011
B16,2.7,0.01
B17,3,0.007
B18,3.4,0.007
B19,3.2,0.004
B20,2.2,0.015
B21,2.2,0.019
B22,3.4,0.008
B24,1,0.033
B25,0.6,0.039
B26,2,0.032
B27,1.2,0.113
B23,3.2,0.015
B28,3,0.024
B29,1.4,0.021
